Residue numbers refer to the chain shown, from its start. Values belong to the binder of their own block, whether it stands above or below them.
How the values were obtained:
Assay in all cases: SPR (Biacore T200), receptor on CM5 chip
[1] = molecular target: T1, human TNFRII (human, UniProt P20333 23-257, limits assumed)
T1 construct: Amine-coupled to a CM5 chip
T1 sequence (looked up): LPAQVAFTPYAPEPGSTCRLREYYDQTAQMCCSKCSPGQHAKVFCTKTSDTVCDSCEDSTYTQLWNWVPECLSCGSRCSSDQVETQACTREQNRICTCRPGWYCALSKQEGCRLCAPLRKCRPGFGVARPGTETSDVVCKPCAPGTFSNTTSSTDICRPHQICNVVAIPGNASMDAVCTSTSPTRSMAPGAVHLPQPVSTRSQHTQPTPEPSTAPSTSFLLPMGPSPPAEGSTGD

[2] = molecular target: T2, human CD137 (human, UniProt Q07011 24-186, limits assumed)
T2 construct: Amine-coupled to a CM5 chip; also called 4-1BB

[3] = molecular target: T3, human CD40 (human, UniProt P25942 21-193, limits assumed)
T3 construct: Amine-coupled to a CM5 chip
T3 sequence (P25942 21-193 limits assumed): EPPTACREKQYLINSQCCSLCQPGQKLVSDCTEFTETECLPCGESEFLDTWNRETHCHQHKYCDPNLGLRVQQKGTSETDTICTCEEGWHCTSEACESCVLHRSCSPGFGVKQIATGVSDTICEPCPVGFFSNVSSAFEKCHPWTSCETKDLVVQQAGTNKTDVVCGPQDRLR

[4] = molecular target: T4, human TNFRI (human, UniProt P19438 30-211, limits assumed)
T4 construct: Amine-coupled to a CM5 chip
T4 sequence (looked up): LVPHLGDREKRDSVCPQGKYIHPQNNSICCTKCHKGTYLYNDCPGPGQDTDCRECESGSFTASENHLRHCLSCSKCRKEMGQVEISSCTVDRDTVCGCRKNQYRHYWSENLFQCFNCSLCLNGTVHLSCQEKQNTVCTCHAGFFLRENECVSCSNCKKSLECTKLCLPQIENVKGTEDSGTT

[5] = molecular target: T5, human NGFR (human, UniProt P08138 29-250, limits assumed)
T5 construct: Amine-coupled to a CM5 chip
T5 sequence (looked up): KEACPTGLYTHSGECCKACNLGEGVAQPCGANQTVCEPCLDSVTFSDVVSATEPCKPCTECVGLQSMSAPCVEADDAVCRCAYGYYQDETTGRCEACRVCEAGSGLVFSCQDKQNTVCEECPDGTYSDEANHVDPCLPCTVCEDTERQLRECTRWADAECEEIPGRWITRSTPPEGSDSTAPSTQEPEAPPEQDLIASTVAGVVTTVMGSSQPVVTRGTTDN

B1: FS20-11-127AA/4420 (bispecific antibody, human IgG1, kappa, L234A L235A)
heavy: EVKLDETGGGLVQPGRPMKLSCVASGFTFSDYWMNWVRQSPEKGLEWVAQIRNKPYNYETYYSDSVKGRFTISRDDSKSSVYLQMNNLRVEDMGIYYCTGSYYGMDYWGQGTSVTVSSASTKGPSVFPLAPSSKSTSGGTAALGCLVKDYFPEPVTVSWNSGALTSGVHTFPAVLQSSGLYSLSSVVTVPSSSLGTQTYICNVNHKPSNTKVDKKVEPKSCDKTHTCPPCPAPEAAGGPSVFLFPPKPKDTLMISRTPEVTCVVVDVSHEDPEVKFNWYVDGVEVHNAKTKPREEQYNSTYRVVSVLTVLHQDWLNGKEYKCKVSNKALPAPIEKTISKAKGQPREPQVYTLPPSREEDDNDVSLTCLVKGFYPSDIAVEWESNGIPIGPYKTTPPVLDSDGSFFLYSKLTVDKSRWWRHYVEEHPFLCSVMHEALHNHYTQKSLSLSPG
light: DVVMTQTPLSLPVSLGDQASISCRSSQSLVHSNGNTYLRWYLQKPGQSPKVLIYKVSNRFSGVPDRFSGSGSGTDFTLKISRVEAEDLGVYFCSQSTHVPWTFGGGTKLEIKRTVAAPSVFIFPPSDEQLKSGTASVVCLLNNFYPREAKVQWKVDNALQSGNSQESVTEQDSKDSTYSLSSTLTLSKADYEKHKVYACEVTHQGLSSPVTKSFNRGEC
notes: Human IgG1 with anti-FITC 4420 Fab and LALA; The OX40 site is in the CH3 domain
binding result [1]: no binding (tested: 1 µM)
binding result [2]: no binding (tested: 1 µM)
binding result [3]: no binding (tested: 1 µM)
binding result [4]: no binding (tested: 1 µM)
binding result [5]: no binding (tested: 1 µM)

B2: FS20-22-38AA/4420 (bispecific antibody, human IgG1, kappa, L234A L235A)
heavy: EVKLDETGGGLVQPGRPMKLSCVASGFTFSDYWMNWVRQSPEKGLEWVAQIRNKPYNYETYYSDSVKGRFTISRDDSKSSVYLQMNNLRVEDMGIYYCTGSYYGMDYWGQGTSVTVSSASTKGPSVFPLAPSSKSTSGGTAALGCLVKDYFPEPVTVSWNSGALTSGVHTFPAVLQSSGLYSLSSVVTVPSSSLGTQTYICNVNHKPSNTKVDKKVEPKSCDKTHTCPPCPAPEAAGGPSVFLFPPKPKDTLMISRTPEVTCVVVDVSHEDPEVKFNWYVDGVEVHNAKTKPREEQYNSTYRVVSVLTVLHQDWLNGKEYKCKVSNKALPAPIEKTISKAKGQPREPQVYTLPPSRDEYWDQEVSLTCLVKGFYPSDIAVEWESNGAEKYQYKTTPPVLDSDGSFFLYSKLTVDQYRWNPGDYFSCSVMHEALHNHYTQKSLSLSPG
light: B1 light
notes: Human IgG1 with anti-FITC 4420 Fab and LALA; The OX40 site is in the CH3 domain; also called FS20-22-38 Fcab in mock (4420 LALA) mAb^2 format
binding result [1]: no binding (tested: 1 µM)
binding result [2]: no binding (tested: 1 µM)
binding result [3]: no binding (tested: 1 µM)
binding result [4]: no binding (tested: 1 µM)
binding result [5]: no binding (tested: 1 µM)

B3: FS20-31-115AA/4420 (bispecific antibody, human IgG1, kappa, L234A L235A)
heavy: EVKLDETGGGLVQPGRPMKLSCVASGFTFSDYWMNWVRQSPEKGLEWVAQIRNKPYNYETYYSDSVKGRFTISRDDSKSSVYLQMNNLRVEDMGIYYCTGSYYGMDYWGQGTSVTVSSASTKGPSVFPLAPSSKSTSGGTAALGCLVKDYFPEPVTVSWNSGALTSGVHTFPAVLQSSGLYSLSSVVTVPSSSLGTQTYICNVNHKPSNTKVDKKVEPKSCDKTHTCPPCPAPEAAGGPSVFLFPPKPKDTLMISRTPEVTCVVVDVSHEDPEVKFNWYVDGVEVHNAKTKPREEQYNSTYRVVSVLTVLHQDWLNGKEYKCKVSNKALPAPIEKTISKAKGQPREPQVYTLPPSRDEWASGEVSLTCLVKGFYPSDIAVEWESNGEQEFDYKTTPPVLDSDGSFFLYSKLTVPYWRWGAKRTFSCSVMHEALHNHYTQKSLSLSPG
light: B1 light
notes: Human IgG1 with anti-FITC 4420 Fab and LALA; The OX40 site is in the CH3 domain; also called FS20-31-115 Fcab in mock (4420 LALA) mAb^2 format
binding result [1]: no binding (tested: 1 µM)
binding result [2]: no binding (tested: 1 µM)
binding result [3]: no binding (tested: 1 µM)
binding result [4]: no binding (tested: 1 µM)
binding result [5]: no binding (tested: 1 µM)

B4: FS20-22-47AA/4420 (bispecific antibody, human IgG1, kappa, L234A L235A)
heavy: B2 heavy with A387D, K389Q, Y390F, Q391A, N419S
light: B1 light
notes: Human IgG1 with anti-FITC 4420 Fab and LALA; The OX40 site is in the CH3 domain; also called FS20-22-47 Fcab in mock (4420 LALA) mAb^2 format
binding result [1]: no binding (tested: 1 µM)
binding result [2]: no binding (tested: 1 µM)
binding result [3]: no binding (tested: 1 µM)
binding result [4]: no binding (tested: 1 µM)
binding result [5]: no binding (tested: 1 µM)

Other lines, results leading:

binding result [1]: no binding (tested: 1 µM)
binding result [2]: no binding (tested: 1 µM)
binding result [3]: no binding (tested: 1 µM)
binding result [4]: no binding (tested: 1 µM)
binding result [5]: no binding (tested: 1 µM)
B5: FS20-22-49AA/4420 (bispecific antibody, human IgG1, kappa, L234A L235A)
heavy: B2 heavy with A387D, K389Q, Y390F, Q391A, G421A
light: B1 light
notes: Human IgG1 with anti-FITC 4420 Fab and LALA; The OX40 site is in the CH3 domain; also called FS20-22-49 Fcab in mock (4420 LALA) mAb^2 format; FS20-22-49/4420 (LALA)

binding result [1]: no binding (tested: 1 µM)
binding result [2]: no binding (tested: 1 µM)
binding result [3]: no binding (tested: 1 µM)
binding result [4]: no binding (tested: 1 µM)
binding result [5]: no binding (tested: 1 µM)
B6: FS20-31-108AA/4420 (bispecific antibody, human IgG1, kappa, L234A L235A)
heavy: B3 heavy with Q388K, F390I
light: B1 light
notes: Human IgG1 with anti-FITC 4420 Fab and LALA; The OX40 site is in the CH3 domain; also called FS20-31-108 Fcab in mock (4420 LALA) mAb^2 format

binding result [1]: no binding (tested: 1 µM)
binding result [2]: no binding (tested: 1 µM)
binding result [3]: no binding (tested: 1 µM)
binding result [4]: no binding (tested: 1 µM)
binding result [5]: no binding (tested: 1 µM)
B7: FS20-22-85AA/4420 (bispecific antibody, human IgG1, kappa, L234A L235A)
heavy: B2 heavy with A387D, K389Q, Y390F, Q391A, V413L, G421F, Y423D
light: B1 light
notes: Human IgG1 with anti-FITC 4420 Fab and LALA; The OX40 site is in the CH3 domain; also called FS20-22-85 Fcab in mock (4420 LALA) mAb^2 format

— patent US20250361312A1 (INVOX PHARMA, published 2025)
